Measurements reported in patent US20190002846A1, “POLYPEPTIDES HAVING DEMETHYLATING ACTIVITY” (Genencor International B.V., priority 2015, published 2019).

How the values were obtained:
[1] = Conversion of syringic acid by purified PPO, difference absorbance spectra after 24 h; type: biochemical; settings: 12 mM syringic acid, purified enzyme 0.048 g/L, pH 6.5, 10 μM CuSO4, room temperature
Protocol: Syringic acid (12 mM, 2.38 g/L) was incubated with PPO7 and PPO2 from Example 5 (0.048 g/L, 2% loading (w/w)) in 50 mM BisTris buffer pH 6.5 with 10 μM CuSO4. Blank prepared without the addition of enzyme was included. Incubations were performed in HPLC vials with a total of 750 μL reaction volume at room temperature for 24 h. The reaction was stopped by adding 21 μL 1M HCl to lower the pH to ˜3. Samples were filtrated and absorbance spectra were measured (230-1000 nm, 2 nm interval). […] It is to be noted that any change in absorbance in time indicates syringic acid conversion.

[2] = Methanol formation by GC, lignin-derived compound; type: biochemical; settings: enzyme 0.5 g/L, 25° C., approx. 48 h
Protocol: (§1) Model compounds syringic acid, syringol, 1,3-dimethoxybenzene and 3,5-dimethoxybenzoic acid (12 mM) were incubated with PPO7 from Example 2 (2% loading (w/w)) in 50 mM BisTris buffer pH 6.5 with 10 μM CuSO4. For syringic acid and syringol PPO2 from Example 2 was included as a control. Lignin and lignin-derived compounds (10 g/L) were incubated with PPO7 from Example 2 (0.5 g/L, 5% loading (w/w)). PPO2 from Example 2 was included as a control and incubated using the same conditions. Blanks prepared without the addition of enzyme were included. Incubations were performed in GC headspace vials with a total of 1 mL reaction volume at 25° C. for approximately 48 h while shaking. The reaction was stopped by adding 28 μL 1M HCl to lower the pH to ˜3. Samples were analyzed by GC for methanol formation. A calibration range of 0.23 to 11.5 mM methanol in buffer with HCl was included.

[3] = Methanol formation by GC, lignin; type: biochemical; settings: enzyme 0.5 g/L, 25° C., approx. 48 h
Protocol: as §1

[4] = molecular target: T1, RAC incubated with LPMO9B (Thermothelomyces thermophilus, UniProt G2QCJ3); test: RAC hydrolysis assay with LPMO9B and PPO7 or AbTyr in the presence of phenolic reducing agents; type: biochemical, Myceliophthora thermophila; settings: LPMO9B alone = 100%, or with added enzyme, pH 5.0, 50° C., 24 h
T1 construct: made in house; host or cells: Myceliophthora thermophila C1 strain W1L#100.1Δpyr5ΔAlp1
T1 sequence (G2QCJ3 19-323): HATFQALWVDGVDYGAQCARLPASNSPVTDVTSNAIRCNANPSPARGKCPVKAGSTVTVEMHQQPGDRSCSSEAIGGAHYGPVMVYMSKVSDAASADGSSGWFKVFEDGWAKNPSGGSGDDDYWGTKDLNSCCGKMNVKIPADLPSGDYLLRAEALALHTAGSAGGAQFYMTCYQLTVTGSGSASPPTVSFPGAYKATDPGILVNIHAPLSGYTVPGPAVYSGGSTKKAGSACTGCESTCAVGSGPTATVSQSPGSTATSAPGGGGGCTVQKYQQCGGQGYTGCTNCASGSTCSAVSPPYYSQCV
Protocol: Phenolic reducing agents were obtained from Sigma-Aldrich (St. Louis, Mo., USA). RAC was prepared as described above and dissolved in 50 mM phospate buffer (pH 5.0) to a final concentration of 1.5 mg/ml. Copper chloride was added to a final concentration of 2.5 μM and a phenolic reducing agent to a final concentration of 2 mM. LPMO9B (5 μg/ml) with or without PPO7 (5 μg/ml) or AbTyr (7.5 U/ml) were added and incubated for 24 h at 50° C. in a head-over-tail rotator in portions of 1 mL total volume (Stuart® rotator, Bibby Scientific LTD, Stone, UK) at 20 rpm. Products were analysed by HPAEC and MALDI-TOF MS as described previously. (Frommhagen M, Sforza S, Westphal A H, Visser J, Hinz S W, Koetsier M J et al. Discovery of the combined oxidative cleavage of plant xylan and cellulose by a new fungal polysaccharide monooxygenase. Biotechnology for Biofuels. 2015; 8:101. doi:10.1186/s13068-015-0284-1). The Activity denoted as Activity * represents total release of non-oxidized and C1-oxidized gluco-oligosaccharides from RAC incubated with LPMO9B in the presence of a phenolic reducing agent and with addition of either AbTyr or PPO7. […] Standard deviations were less than 2%.

[5] = Methanol formation by GC, summary statement for lignin and lignin-derived compounds; type: biochemical; settings: lignin and lignin-derived compounds 10 g/L, enzyme 0.5 g/L
Protocol: as §1

[6] = Demethylation of syringic acid (GC methanol, UHPLC/MSMS); type: biochemical
Protocol: Syringic acid (12 mM, 2.38 g/L) was incubated with PPO7 from Example 2 (1.2 μM, 0.048 g/L, 2% loading (w/w)) in 50 mM BisTris buffer pH 6.5 with 10 μM CuSO4. Blank prepared without the addition of enzyme was included. Incubations were performed in GC headspace vials with a total of 1 mL reaction volume in duplicate at room temperature for approximately 90 h. The reaction was stopped by adding 28 μL 1M HCl to lower the pH to ˜3. One of the replicates was analyzed by GC for the methanol formation. A calibration range of 0.23 to 11.6 mM methanol in buffer with HCl was included. The second replicate was analyzed using UHPLC and the formation 3,4-dihydroxy-5-methoxybenzoic acid was confirmed using MSMS (see FIG. 5).

[7] = 12 mM syringic acid, enzyme 0.048 g/L, pH 6.5, 10 μM CuSO4, room temperature, approx. 90 h, blank 0

B1: PPO7: Myceliophthora thermophila C1 polyphenoloxidase with demethylating activity, mature form SEQ ID NO: 45 (protein, listed as Myceliophthora thermophila)
chain: NPMHKRWKPNAPRNPDFPLDEVDKLEESIMPNVEAWMSKRPAKYSNCTLENAGIRREWSDLSVDERKEYISAVLCLQSKPSKIPEGEVPGALSRFDDFVATHMTMAGQLHSPTNLFAAHRYFIHAYEKALREECGYKGYQPYMNYDRYADDPLNTPLFDGSDSSMSGNGGPYNYSGIPQPFPKPYNLIPPAGGGGCVTEGPFRDMVVSLGPKGGLFHDIPRNPRADGLGSNPRCLRRDVNKYSARGARANYTYSAIMDNPDIDSFYNRYMGMPQLKGDPYPWGLHSSGHYLIGGDPGGDFYCSPGDPLFYFHHGMLDRVWWIWQMQDPENRVQAVPGTNTMPMPPLMAANLESEAAATTTHKRAVNVSDLVVDLGWTAPPVKLVDLNEQLGGLGGELCYIYV
[1]
  Spectral change caused by reaction products: spectral increase between 300 and 500 nm
  Syringic acid conversion: negative peak in the difference absorbance spectra between 230 and 300 nm: more significant for PPO7 than for PPO2
[2]; Carboxymodified lignin (corn) 10 g/L, blank 0
  methanol: 0.35 mM
[2]; Carboxymodified lignin (wheat)1 10 g/L, blank 0
  methanol: 0.31 mM
[2]; Carboxymodified lignin (wheat)2 10 g/L, blank 0
  methanol: 0.33 mM
[2]; Fractionated BioLignin 10 g/L, blank 0.28
  methanol: 0.46 mM
[2]; Lowest MW from lignin fractionation 10 g/L, blank 0.04
  methanol: 1.43 mM
[2]; Purified wheat straw BioLignin 10 g/L, blank 0.05
  methanol: 0.21 mM
[3]; Corn stover BioLignin 10 g/L, blank 0
  methanol: 0.27 mM
[3]; Wheat straw BioLignin 10 g/L, blank 0.10
  methanol: 0.28 mM
[4]; reducing agent 3,4-dihydroxy-5-methoxybenzoic acid 2 mM
  Activity: total release of non-oxidized and C1-oxidized gluco-oligosaccharides from RAC: 22%
[4]; reducing agent 3,4-dihydroxy-5-methoxycinnamic acid 2 mM
  Activity: total release of non-oxidized and C1-oxidized gluco-oligosaccharides from RAC: 116%
[4]; reducing agent 3,4-dihydroxybenzoic acid 2 mM
  Activity: total release of non-oxidized and C1-oxidized gluco-oligosaccharides from RAC: 139%
[4]; reducing agent 3-hydroxy-4-methoxycinnamic acid 2 mM
  Activity: total release of non-oxidized and C1-oxidized gluco-oligosaccharides from RAC: 7558%
[4]; reducing agent 3-methylcatechol 2 mM
  Activity: total release of non-oxidized and C1-oxidized gluco-oligosaccharides from RAC: 104%
[4]; reducing agent 4-allyl-2,4-methoxyphenol 2 mM
  Activity: total release of non-oxidized and C1-oxidized gluco-oligosaccharides from RAC: 108%
[4]; reducing agent 4-hydroxy-3-methoxyphenylactone 2 mM
  Activity: total release of non-oxidized and C1-oxidized gluco-oligosaccharides from RAC: 131%
[4]; reducing agent caffeic acid 2 mM
  Activity: total release of non-oxidized and C1-oxidized gluco-oligosaccharides from RAC: 122%
[4]; reducing agent coniferyl aldehyde 2 mM
  Activity: total release of non-oxidized and C1-oxidized gluco-oligosaccharides from RAC: 562%
[4]; reducing agent ferulic acid 2 mM
  Activity: total release of non-oxidized and C1-oxidized gluco-oligosaccharides from RAC: 231%
[4]; reducing agent gallic acid 2 mM
  Activity: total release of non-oxidized and C1-oxidized gluco-oligosaccharides from RAC: 124%
[4]; reducing agent guaiacol 2 mM
  Activity: total release of non-oxidized and C1-oxidized gluco-oligosaccharides from RAC: 5143%
[4]; reducing agent hesperidin 2 mM
  Activity: total release of non-oxidized and C1-oxidized gluco-oligosaccharides from RAC: 771%
[4]; reducing agent homovanillic acid 2 mM
  Activity: total release of non-oxidized and C1-oxidized gluco-oligosaccharides from RAC: 580%
[4]; reducing agent vanillic acid 2 mM
  Activity: total release of non-oxidized and C1-oxidized gluco-oligosaccharides from RAC: 495%
[5]
  Methanol concentration compared to the blank (in words): increased methanol concentration compared to the blank
[6]; [7]
  3,4-dihydroxy-5-methoxybenzoic acid concentration (UHPLC): 1.61 mM
  methanol concentration (GC): 4.84 mM
[6]; 12 mM syringic acid, enzyme 0.048 g/L, pH 6.5, 10 μM CuSO4, room temperature, approx. 90 h, blank 10.86
  syringic acid concentration (UHPLC): 3.02 mM
[6]; formation of 3,4-dihydroxy-5-methoxybenzoic acid and methanol
  Demethylation of syringic acid (in words): catalyzed the demethylation of syringic acid
